For one substance, KIR receptor occupancy results are on record in patent publication US20180117147A1.

Test [1] addresses human KIR2DL3 expressed on NK and T lymphocytes of KIR2DL3 transgenic C57Bl/6 mice (human) (UniProt P43628). Kind of test: in vivo receptor occupancy in whole blood of KIRtgB6 mice, 20 mg/kg iv, for 14 days.
Test [2] shares this target. The test can be described thus: in vivo receptor occupancy in KIRtgB6 mice, 10 mg/kg iv, for 8 days.

Chain of UniProt P43628 (P43628 22-341): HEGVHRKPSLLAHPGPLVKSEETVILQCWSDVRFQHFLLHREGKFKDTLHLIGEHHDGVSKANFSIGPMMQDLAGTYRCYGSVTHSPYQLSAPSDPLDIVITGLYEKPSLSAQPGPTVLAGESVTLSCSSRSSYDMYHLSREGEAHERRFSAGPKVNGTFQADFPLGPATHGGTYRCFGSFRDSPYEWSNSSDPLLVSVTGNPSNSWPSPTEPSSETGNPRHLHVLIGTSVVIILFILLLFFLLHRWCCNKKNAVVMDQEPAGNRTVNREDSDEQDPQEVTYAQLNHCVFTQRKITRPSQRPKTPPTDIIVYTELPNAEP

On to Anti-KIR antibody clone GL183, for which the KIR receptor occupancy in test [1] and in test [2] was over 90% each time.
